We go through 2 molecules from patent US20240190943A1 (HANGZHOU EXEGENESIS BIO, published 2024).

In experiment [1] the target is T1, angiopoietin 2 (UniProt O15123 19-496, limits assumed).
T1 construct: also called Ang2; ANGPT2
T1 sequence (looked up): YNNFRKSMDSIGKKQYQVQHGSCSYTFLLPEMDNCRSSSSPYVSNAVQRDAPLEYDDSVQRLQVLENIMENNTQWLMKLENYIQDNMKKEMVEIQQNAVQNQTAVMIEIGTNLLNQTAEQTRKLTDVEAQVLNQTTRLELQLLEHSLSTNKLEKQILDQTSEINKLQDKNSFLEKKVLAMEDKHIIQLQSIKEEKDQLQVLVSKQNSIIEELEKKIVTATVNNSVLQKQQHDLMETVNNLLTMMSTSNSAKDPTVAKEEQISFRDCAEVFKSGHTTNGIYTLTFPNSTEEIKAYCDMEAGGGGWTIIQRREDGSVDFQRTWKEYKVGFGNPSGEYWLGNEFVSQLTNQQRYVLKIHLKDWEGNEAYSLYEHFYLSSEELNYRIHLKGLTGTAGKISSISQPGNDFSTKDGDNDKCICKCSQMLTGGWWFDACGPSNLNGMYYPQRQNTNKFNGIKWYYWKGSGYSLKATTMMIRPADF
In words: Ang2 ELISA, shown relative to Exg102-04; middle bar of each group. Background: In an ELISA, binding on a coated surface is turned into a signal by an enzyme label.

Experiment [2] concerns the target T2, VEGF-A (UniProt P15692-4 27-191, limits assumed).
T2 construct: also called rVEGF; vascular endothelial growth factor
In words: VEGF-A binding ELISA (OD450), titration in pM of the product of plasmid-transfected cells.

T2 sequence (P15692 other isoform, or with tags, fused parts or gaps limits assumed): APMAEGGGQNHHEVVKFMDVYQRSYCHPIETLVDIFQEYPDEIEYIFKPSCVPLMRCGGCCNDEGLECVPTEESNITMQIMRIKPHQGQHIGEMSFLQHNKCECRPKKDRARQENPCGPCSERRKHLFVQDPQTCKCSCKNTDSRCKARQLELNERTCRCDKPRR

B1: control polypeptide without an Ang BD (Fc fusion)
chain: SDTGRPFVEMYSEIPEIIHMTEGRELVIPCRVTSPNITVTLKKFPLDTLIPDGKRIIWDSRKGFIISNATYKEIGLLTCEATVNGHLYKTNYLTHRQTNTIIDVVLSPSHGIELSVGEKLVLNCTARTELNVGIDFNWEYPSSKHQHKKLVNRDLKTQSGSEMKKFLSTLTIDGVTRSDQGLYTCAASSGLMTKKNSTFVRVHE
notes: Signal peptide left out; also called EXG102-02; EXG102-03-1; not shown: Fc fragment of human IgG
Usually EC50 (read off the curve) stands for the midpoint of the concentration-response curve. High values mean lower potency in that assay, low ones higher potency in that assay. Regarding B1, in experiment [1], the binding result was “no binding”. In addition, the “EC50 (read off the curve)” value in experiment [2] was roughly 0.3 nM.

B2: Exg102-13 (other)
fusion polypeptide (Flt1 signal - VEGFR1 D2 - VEGFR2 D3 - Fc-Hinge - Ang BD): SDTGRPFVEMYSEIPEIIHMTEGRELVIPCRVTSPNITVTLKKFPLDTLIPDGKRIIWDSRKGFIISNATYKEIGLLTCEATVNGHLYKTNYLTHRQTNTIIDVVLSPSHGIELSVGEKLVLNCTARTELNVGIDFNWEYPSSKHQHKKLVNRDLKTQSGSEMKKFLSTLTIDGVTRSDQGLYTCAASSGLMTKKNSTFVRVHEKDKTHTCPPCPAPELLGGPSVGGGGGSGGGGGAQQEECEWDPWTCEHMGSGSATGGSGSTASSGSGSATHQEECEWDPWTCEHMLE
notes: Carries only the N-terminal 21 amino acids of the Fc (Fc-Hinger) and no full Fc; also called Exemplary polypeptide 4
With B2, the binding result in experiment [1] was “no binding”.
